The supplement of paper PMC9112550, “Optimization of the antimicrobial peptide Bac7 by deep mutational scanning” (BMC Biology, 2022)

System: Escherichia coli TOP10
Test: shrunken log2 fold change of peptide-encoding DNA abundance (4.5 h post-induction vs induction); higher = less antimicrobial activity (less host growth inhibition)
Conditions: time post-induction: 4.5 h; library: site-saturation at positions 5, 18, 19, 20
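Further: peptides expressed intracellularly from a pBAD plasmid library in pooled LB shake-flask culture, induced with 0.3% L-arabinose, DNA abundance read by NGS, three biological replicates, DESeq2 with apeglm shrinkage.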

| Sequence | shrunken log2 fold change |
| --- | --- |
| RRIRGRPPRLPRPRPRPRIKPRP | 0.487 |
| RRIRARPPRLPRPRPRPQCIPRP | -0.125 |
| RRIRKRPPRLPRPRPRPGKGPRP | -0.0491 |
| RRIRRRPPRLPRPRPRPEHTPRP | -0.0248 |
| RRIRFRPPRLPRPRPRPWFSPRP | -0.0536 |
| RRIRGRPPRLPRPRPRPRQIPRP | 0.684 |
| RRIRRRPPRLPRPRPRPGRIPRP | 0.0214 |
| RRIRYRPPRLPRPRPRPRRMPRP | -0.0427 |
| RRIRDRPPRLPRPRPRPDFGPRP | -0.0319 |
| RRIRKRPPRLPRPRPRPPMNPRP | 0.123 |
| RRIRERPPRLPRPRPRPDCYPRP | -0.0856 |
| RRIRGRPPRLPRPRPRPHVSPRP | 0.396 |
| RRIRHRPPRLPRPRPRPSWTPRP | -0.356 |
| RRIRERPPRLPRPRPRPCYTPRP | -0.0917 |
| RRIRERPPRLPRPRPRPGCYPRP | -0.151 |
| RRIRVRPPRLPRPRPRPQNPPRP | -0.396 |
| RRIRSRPPRLPRPRPRPFLAPRP | -0.311 |
| RRIRGRPPRLPRPRPRPYVCPRP | -0.00206 |
| RRIRGRPPRLPRPRPRPGDKPRP | 0.425 |
| RRIRFRPPRLPRPRPRPIQIPRP | -0.234 |
| RRIRLRPPRLPRPRPRPHYAPRP | -0.133 |
| RRIRLRPPRLPRPRPRPTHTPRP | -0.158 |
| RRIRIRPPRLPRPRPRPQCDPRP | -0.205 |
| RRIRDRPPRLPRPRPRPHHAPRP | 0.00408 |
| RRIRARPPRLPRPRPRPFQFPRP | -0.158 |

| Sequence | shrunken log2 fold change |
| --- | --- |
| RRIRMRPPRLPRPRPRPFIWPRP | 0.0163 |
| RRIRGRPPRLPRPRPRPDAEPRP | 3.37 |
| RRIRQRPPRLPRPRPRPNMAPRP | -0.173 |
| RRIRERPPRLPRPRPRPWIDPRP | -0.0474 |
| RRIRPRPPRLPRPRPRPLHQPRP | -0.0461 |
| RRIRWRPPRLPRPRPRPWWAPRP | -0.194 |
| RRIRNRPPRLPRPRPRPPMDPRP | -0.508 |
| RRIRRRPPRLPRPRPRPVMNPRP | 0.0331 |
| RRIRSRPPRLPRPRPRPYSDPRP | -0.0368 |
| RRIRSRPPRLPRPRPRPLWHPRP | -0.289 |
| RRIRSRPPRLPRPRPRPDMHPRP | -0.118 |
| RRIRWRPPRLPRPRPRPHTMPRP | -0.00694 |
| RRIRRRPPRLPRPRPRPFSSPRP | -0.0604 |
| RRIRVRPPRLPRPRPRPNEAPRP | -0.0128 |
| RRIRHRPPRLPRPRPRPQPTPRP | -0.18 |
| RRIRIRPPRLPRPRPRPQPFPRP | -0.264 |
| RRIRERPPRLPRPRPRPNNEPRP | -0.525 |
| RRIRCRPPRLPRPRPRPSACPRP | -0.0897 |
| RRIRQRPPRLPRPRPRPSSHPRP | 0.0105 |
| RRIRRRPPRLPRPRPRPGYRPRP | -0.119 |
| RRIRARPPRLPRPRPRPSAYPRP | 0.0396 |
| RRIRLRPPRLPRPRPRPEYKPRP | -0.438 |
| RRIRTRPPRLPRPRPRPKQYPRP | -0.379 |
| RRIRQRPPRLPRPRPRPRESPRP | 0.0584 |
| RRIRHRPPRLPRPRPRPIKHPRP | -0.341 |

| Sequence | shrunken log2 fold change |
| --- | --- |
| RRIRQRPPRLPRPRPRPMFTPRP | -0.31 |
| RRIRVRPPRLPRPRPRPRCQPRP | 0.0744 |
| RRIRIRPPRLPRPRPRPSMWPRP | -0.178 |
| RRIRPRPPRLPRPRPRPTKEPRP | 0.193 |
| RRIRRRPPRLPRPRPRPGFFPRP | 0.268 |
| RRIRFRPPRLPRPRPRPMYTPRP | -0.00812 |
| RRIRFRPPRLPRPRPRPHIGPRP | -0.482 |
| RRIRYRPPRLPRPRPRPQAEPRP | -0.0183 |
| RRIRCRPPRLPRPRPRPQLKPRP | -0.194 |
| RRIRTRPPRLPRPRPRPDEHPRP | -0.0955 |
| RRIRRRPPRLPRPRPRPNNYPRP | -0.378 |
| RRIRPRPPRLPRPRPRPDWCPRP | -0.179 |
| RRIRVRPPRLPRPRPRPCEHPRP | -0.0331 |
| RRIRTRPPRLPRPRPRPSHSPRP | -0.399 |
| RRIRNRPPRLPRPRPRPTFMPRP | -0.401 |
| RRIRDRPPRLPRPRPRPLYCPRP | -0.333 |
| RRIRGRPPRLPRPRPRPRIQPRP | 0.337 |
| RRIRTRPPRLPRPRPRPPKQPRP | -0.00507 |
| RRIRTRPPRLPRPRPRPYYMPRP | -1.06 |
| RRIRERPPRLPRPRPRPVLWPRP | 0.153 |
| RRIRFRPPRLPRPRPRPHQGPRP | -0.0419 |
| RRIRARPPRLPRPRPRPFTIPRP | -0.142 |
| RRIRRRPPRLPRPRPRPMDFPRP | 0.195 |
| RRIRCRPPRLPRPRPRPQRVPRP | -0.158 |
| RRIRCRPPRLPRPRPRPRWRPRP | 0.442 |

| Sequence | shrunken log2 fold change |
| --- | --- |
| RRIRCRPPRLPRPRPRPKREPRP | 0.636 |
| RRIRMRPPRLPRPRPRPGDVPRP | 0.333 |
| RRIRCRPPRLPRPRPRPFHRPRP | 0.00717 |
| RRIRHRPPRLPRPRPRPVLMPRP | -0.381 |
| RRIRNRPPRLPRPRPRPATNPRP | -0.0513 |
| RRIRGRPPRLPRPRPRPVFTPRP | 0.523 |
| RRIRGRPPRLPRPRPRPANLPRP | 0.166 |
| RRIRWRPPRLPRPRPRPMIIPRP | -0.0264 |
| RRIRKRPPRLPRPRPRPQQPPRP | -0.041 |
| RRIRGRPPRLPRPRPRPVDRPRP | 0.297 |
| RRIRPRPPRLPRPRPRPAYMPRP | -0.231 |
| RRIRYRPPRLPRPRPRPNKMPRP | -1.19 |
| RRIRYRPPRLPRPRPRPKMFPRP | -0.845 |
| RRIRMRPPRLPRPRPRPSALPRP | 0.105 |
| RRIRARPPRLPRPRPRPPYRPRP | -0.0935 |
| RRIRLRPPRLPRPRPRPKKIPRP | -0.104 |
| RRIRERPPRLPRPRPRPSVNPRP | -0.959 |
| RRIRCRPPRLPRPRPRPKKKPRP | -0.0938 |
| RRIRVRPPRLPRPRPRPWYTPRP | -0.507 |
| RRIRARPPRLPRPRPRPWSDPRP | 0.15 |
| RRIRTRPPRLPRPRPRPIVLPRP | -0.145 |
| RRIRTRPPRLPRPRPRPCTVPRP | -0.442 |
| RRIRCRPPRLPRPRPRPHIPPRP | -0.245 |
| RRIRPRPPRLPRPRPRPETAPRP | 0.396 |
| RRIRSRPPRLPRPRPRPFQFPRP | -0.157 |

| Sequence | shrunken log2 fold change |
| --- | --- |
| RRIRPRPPRLPRPRPRPWIYPRP | -0.584 |
| RRIRGRPPRLPRPRPRPEAWPRP | 1.91 |
| RRIRIRPPRLPRPRPRPRMCPRP | 0.242 |
| RRIRQRPPRLPRPRPRPKNSPRP | -0.536 |
| RRIRARPPRLPRPRPRPYIPPRP | -0.805 |
| RRIRQRPPRLPRPRPRPELMPRP | -0.0508 |
| RRIRVRPPRLPRPRPRPFGYPRP | -0.425 |
| RRIRSRPPRLPRPRPRPPESPRP | 0.877 |
| RRIRKRPPRLPRPRPRPGWRPRP | 0.348 |
| RRIRGRPPRLPRPRPRPTVKPRP | 0.642 |
| RRIRSRPPRLPRPRPRPIGAPRP | 0.058 |
| RRIRRRPPRLPRPRPRPSSKPRP | -0.145 |
| RRIRGRPPRLPRPRPRPGSVPRP | 0.484 |
| RRIRKRPPRLPRPRPRPTINPRP | -0.184 |
| RRIRFRPPRLPRPRPRPWFVPRP | -0.283 |
| RRIRKRPPRLPRPRPRPLDNPRP | 0.0829 |
| RRIRIRPPRLPRPRPRPAYMPRP | -0.688 |
| RRIRMRPPRLPRPRPRPHADPRP | 2 |
| RRIRARPPRLPRPRPRPFATPRP | 0.66 |
| RRIRFRPPRLPRPRPRPCGMPRP | -0.24 |
| RRIRSRPPRLPRPRPRPIALPRP | -0.385 |
| RRIRTRPPRLPRPRPRPSNYPRP | -1.22 |
| RRIRLRPPRLPRPRPRPQHSPRP | -0.337 |
| RRIRCRPPRLPRPRPRPIGRPRP | -0.0502 |
| RRIRTRPPRLPRPRPRPDVFPRP | 0.0603 |

| Sequence | shrunken log2 fold change |
| --- | --- |
| RRIRCRPPRLPRPRPRPFRPPRP | -0.515 |
| RRIRIRPPRLPRPRPRPCKRPRP | 0.0279 |
| RRIRFRPPRLPRPRPRPGGWPRP | 0.654 |
| RRIRCRPPRLPRPRPRPIHNPRP | -0.725 |
| RRIRYRPPRLPRPRPRPPHYPRP | -0.686 |
| RRIRRRPPRLPRPRPRPIKWPRP | 0.0148 |
| RRIRLRPPRLPRPRPRPVIRPRP | -0.502 |
| RRIRMRPPRLPRPRPRPDRMPRP | 0.422 |
| RRIRHRPPRLPRPRPRPMGNPRP | -0.0499 |
| RRIRCRPPRLPRPRPRPEAQPRP | 0.704 |
| RRIRRRPPRLPRPRPRPDKEPRP | 0.0257 |
| RRIRNRPPRLPRPRPRPGKVPRP | -0.123 |
| RRIRLRPPRLPRPRPRPCCQPRP | -0.194 |
| RRIRLRPPRLPRPRPRPRSDPRP | 0.126 |
| RRIRMRPPRLPRPRPRPSPDPRP | 1.19 |
| RRIRERPPRLPRPRPRPEYEPRP | 0.0303 |
| RRIRHRPPRLPRPRPRPILDPRP | 0.0523 |
| RRIRRRPPRLPRPRPRPIRCPRP | 0.334 |
| RRIRARPPRLPRPRPRPLTTPRP | 0.463 |
| RRIRLRPPRLPRPRPRPWHCPRP | -0.0686 |
| RRIRHRPPRLPRPRPRPPGMPRP | 0.0769 |
| RRIRGRPPRLPRPRPRPSNKPRP | -0.0675 |
| RRIRCRPPRLPRPRPRPKFNPRP | -0.477 |
| RRIRYRPPRLPRPRPRPASFPRP | -0.138 |
| RRIRGRPPRLPRPRPRPAHQPRP | 0.65 |
